Laboratory results taken from the nanobody polyreactivity screen of Harvey et al. (2022).

test: yeast display, Sf9 membrane polyspecificity reagent, FACS + sequencing; frameworks hold sequencing errors
How it was run: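 Synthetic nanobody libraries on Saccharomyces cerevisiae BJ5465 were galactose-induced for 36–48 hours, stained 1 hour at 4 °C with 10% biotinylated, detergent-solubilized Sf9 membrane reagent and enriched on streptavidin microbeads. FACS then separated cells into low and high (top ~1%) gates by anti-HA (expression) and streptavidin (reagent binding) fluorescence. Genes were colony-PCR amplified, MiSeq 2 × 250 sequenced and CDR-length filtered. A clone's polyreactivity label is that of its gate of origin.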

Row | Sequence | polyreactivity (PSR sort gate)
1 | QVQLVESGGGLVQAGGSLRLSCAASGFTFGSNAMGWYRQAPGKERELVATISRRGGRTYYADSVKGRFTISRDNAKNTVYLQMNSLKPEDTAVYYCAADRSRPGYDYWGQGTQVTVSS | high polyreactivity
2 | QVQLVESGGGLVQAGGSLRLSCAASGFTFRGYAMGWYRPAPGKERELVAAIRGGGGRTYYADSVKGRFTISRDNAKNTVYLQMNSLKPEDTAVYYCAKVVSIRNDEYDYWGQGTQVTVSS | high polyreactivity
3 | HVQLVESAGGLFQEGGSLRVSCAASGGTLNTYAMGRYRQAPGKDREFVSAITTSGASTYYADSVKGRFTISRDNAKNTVYLQMNSLKPEDSAVYYCYCDYWGQGTQVTVSS | low polyreactivity
4 | QVQLVESGGGLVQAGGSLRLSCAASGSTFKPNAMGSYRQAPGKEREFVASITWSAGSTYYADSVKGRFTISRDNAKNTVYLQMNSLKPEDTAVYYCAARLRWAGISRYGYWGQGTQVTVSS | high polyreactivity
5 | QVQLVESGGGFVQAGGSLRLICAASGSILHSYSMGWYRQAPGKERELVAAISGSGGSTYYADSVKRRFTISRDNAKNTVYLQMNSLKPEDTAVYYCAAVWSRADRYYYWGQGTQVTVSS | low polyreactivity
6 | QVQLVESGGGLVQAGGSLRLSCAASGSTFWFYAMGWYRQAPGKERELVAAISRSSGSTYYADSVKGRFTISRDNAKNTVYLQMNSLKPEDTAVYYCAKGWSSVPTQYDYWGQGTQVTVSS | low polyreactivity
7 | QVHLVESGGCLVQAGGSLRLICAASGRIFDGNTMGWYRQEPGKERELVAAISGVGSTDYADSVKGRYTISRDNAKNTVYFQINSLKPEDTAVYYCAATTGPVPLKGDYWGQGTQVTVSS | low polyreactivity
8 | QVQLVESGGGLVQAGGSLRLSCAASGRIFHYYAMGWYRQAPGKERELVAAINKSGGRTYYADSVKGRFTISRDNAKNTVYLQMNSLKPEDTAVYYCAAQDGYWGQGTQVTVSS | high polyreactivity
9 | QVQLVESGGGLVQAGGSLRLSCAASGSIFGRYGAIGWYRQAPGKERELVAAINRSGGITYYADSVKGRFTISRDNAKNTVYLQMNSLKPEDTAVYYFNADAYYYSTSPRGAFDWPYDYWGQGTQVNVSS | low polyreactivity
10 | QVQLVESWGGLVQAGGSLRLSCAASGRTSGNYAMGWYRQAPGKERELVAAIRYSGSSTFYADSVKGRFTISRDNAKNTVYLQMNSLKPEDTAVYYCARDIRRKGFRYDYWGQGTQVNVSS | high polyreactivity
11 | QVQLVESGGGLVQAGGSLRLSCAASGSTFQVYAMGWYRQAPGKERELVATIRGVGSTNYADSVKGRFTISRDNAKKTVYLQMNSLKPEDTAVYYCNAAVSQFSHRWRRRITFDYWGQGTQVTVSS | low polyreactivity
12 | QVQLVESGGGLVQAGGSLRLSCAASGSTFRYKTMGWYRQAPGKERELVAAISSRGTNTYYADSVKGRFTISRDNAKNTVYLQMNSLKPDDPAVYYCDTGYYVRMDWGQGTQVTVSS | high polyreactivity
13 | QVQLVESGGGLVQAGGSLRLSCAASGITFSWNAMGRYRQAPGKERELVASITENTGCTYYADSVKGRFTISRDNAKNTVYLQMNSLKPEDTAVDYCWYTQNTLGNYWGQGTQVTVSS | low polyreactivity
14 | QVQLVESGGGLVQAGGSLRLSCAASGFIFGVYAMGWYRQAPAKERELDAAISYRTGTTYYADSVKGRFTISRDNAKNTVYLQMNSLKPEDTAVYYCAAKSRAAVRKYGSEYWGQGTQVTVSS | high polyreactivity
15 | QVQLVESGGGLFQAGGSLRLSCAASGRIFGYNSMGWDRQAPGKERELVAAIRRRGGTTYYADSVKGRFTISRDNAKNTVYLQMNSLKPEDNAVYYCAADLTFSYRQSAGRYSTYGYWGQGTQVTVSS | high polyreactivity
16 | QVQLVESGGGLVQAGGSLRLSCAASGRTFTVYAMGWYRQAPGKEREFVATISWSGGRTYYADSVKGRFTISRDNAKNTVYLQMNSLKPEDTAVYYCSAQEYTTRFYFNRDYWGQGTQVTVSS | low polyreactivity
